For two molecules, Kd results are on record in article PMC12572175 (2025).

In the assay the target is Protein A domain D (Staphylococcus aureus). The assay is described as follows: BLI. On the technique in general: BLI is a label-free optical method that tracks binding on a fibre tip over time.

The Kd is the equilibrium constant for the complex coming apart. Higher therefore signals a looser complex.

B1: n501 T77A (antibody)
chain: EVQLVESGGGLVQPGGSLRLSCAASDFTFRNYEMSWVRQAPGKGLEWVSSISGSGGSTYYAHSLKGRFAISRDNSKNTLYLQMNSLRAEDTAIYYCARLRDGFNNGFDYWGQGTLVTVSS
Take B1: binding was characterised by a dissociation constant (Kd) of 324 nM.

B2: n501 N92A (antibody)
chain: EVQLVESGGGLVQPGGSLRLSCAASDFTFRNYEMSWVRQAPGKGLEWVSSISGSGGSTYYAHSLKGRFTISRDNSKNTLYLQMASLRAEDTAIYYCARLRDGFNNGFDYWGQGTLVTVSS
With B2, the dissociation constant (Kd) was 328 nM.
